# From paper PMC8141644, “Design of a Trispecific Checkpoint Inhibitor and Natural Killer Cell Engager Based on a 2 + 1 Common Light Chain Antibody Architecture” (Frontiers in Immunology, 2021)
# B1: ICI2 (antibody, V domains shown)
# VH: AVTLDESGGGLQTPGGALSLVCKASGFDFSSYDMAWVRQAPGKGLEWVAGIKSNGPWTNYGAAVKGRATISRDNGQSTVRLQLNNLRAEDTAIYYCAKPGAGYVGWDAAGTIDSWGHGTEVIVSS
# VL: ALTQPSSVSANPGETVKITCSGGGYDGSYYYGWYQQKSPGSAPVTVIYDNTNRPSNIPSRFSGSLSGSTNTLTITGVQAEDEAVYFCGGYDRSGGIFGGGTTLTVL
# notes: VH of ICI2 (chicken-derived); IgG1 constant region (CH1, hinge, Fc) with the LALA mutation; as the light chain of m10 (dFEB1-VL common light chain); IgG1 LALA chimeric antibody; source: Expi293F, purified (Protein A chromatography); copies: 2 + 2
# B2: dFEB4-1 (antibody, V domains shown)
# VH: AVTLDESGGGLQTPGGALSLVCKASGFTFSSHGMLWVRQAPGKGLEFVAGISTDGSSTSYGAPVKGRATISRDNGQSTVRLQLNNLRAEDTGTYYCAKDAYRCRNCAEDIDAWGHGTEVIVSS
# VL: B1 VL
# notes: as the heavy chain of m8 (parental FEB4 heavy chain); dFEB1-VL, chicken VL from the light chain shuffling; human lambda CL; IgG; also called parental FEB4 heavy chain with dFEB1-VL; source: Expi293F, co-transfected; sterile filtered culture supernatant, and purified (Protein A chromatography); copies: 2 + 2
# B3: FEB4 (antibody, V domains shown)
# VH: B2 VH
# VL: ALTQPSSVSANPGETVKITCSGGYSDDGSYYYYGWFQQKSPGSAPVTVIYDNTNRPSNIPSRFSGSTSGSTSTLTITGVRAEDEAVYYCGSIDTGYAGIFGAGTTLTVL
# notes: IgG1 constant region (CH1, hinge, Fc); standard IgG1 format; also called parental FEB4 mAb; parental antibody; copies: 2 + 2
# Assays:
# PD-L1-ECD = target: T1, PD-L1-ECD (Homo sapiens (; durvalumab …, UniProt Q9NZQ7); experiment: BLI; affinity determination as previously described (54); purified antibodies (loaded onto AHC biosensors, as told for the anti-CD16a variants), antigen in solution; Octet RED96, 30 °C, 1000 rpm; settings: both partners purified
# T1 construct: also called His-tagged PD-L1; source: bought: R&D systems (His-tagged PD-L1)
# EGFR-ECD [1] = target: T2, EGFR-ECD (UniProt P00533); experiment: as above; settings: both partners purified
# T2 construct: epidermal growth factor receptor (EGFR), extracellular domain (EGFR-ECD); With anti-human-Fc (AHC) sensors it was probably the His-tagged one; also called epidermal growth factor receptor extracellular domain
# EGFR-ECD [2] = target: T2, EGFR-ECD; experiment: BLI; sterile filtered Expi293F cell culture supernatants of the light chain variants paired with the parental FEB4 heavy chain; settings: one partner purified
# T1 sequence (Q9NZQ7 19-238): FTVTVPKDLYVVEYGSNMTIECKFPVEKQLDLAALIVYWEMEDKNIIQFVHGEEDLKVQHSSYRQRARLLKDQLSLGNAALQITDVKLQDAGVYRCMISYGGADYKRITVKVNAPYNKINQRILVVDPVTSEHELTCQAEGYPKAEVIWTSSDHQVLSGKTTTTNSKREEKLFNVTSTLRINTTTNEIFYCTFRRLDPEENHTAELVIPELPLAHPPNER
binder,measurement,setting,value
B1,Kd,PD-L1-ECD,3 nM
B2,Kd,EGFR-ECD [1],6.4 nM
same,fold improvement in KD against the parental FEB4,EGFR-ECD [1],5 fold
B3,binding result,EGFR-ECD [2],binds
